One test concerns the target T1, murine NRP1 (mouse, UniProt P97333).
T1 chain: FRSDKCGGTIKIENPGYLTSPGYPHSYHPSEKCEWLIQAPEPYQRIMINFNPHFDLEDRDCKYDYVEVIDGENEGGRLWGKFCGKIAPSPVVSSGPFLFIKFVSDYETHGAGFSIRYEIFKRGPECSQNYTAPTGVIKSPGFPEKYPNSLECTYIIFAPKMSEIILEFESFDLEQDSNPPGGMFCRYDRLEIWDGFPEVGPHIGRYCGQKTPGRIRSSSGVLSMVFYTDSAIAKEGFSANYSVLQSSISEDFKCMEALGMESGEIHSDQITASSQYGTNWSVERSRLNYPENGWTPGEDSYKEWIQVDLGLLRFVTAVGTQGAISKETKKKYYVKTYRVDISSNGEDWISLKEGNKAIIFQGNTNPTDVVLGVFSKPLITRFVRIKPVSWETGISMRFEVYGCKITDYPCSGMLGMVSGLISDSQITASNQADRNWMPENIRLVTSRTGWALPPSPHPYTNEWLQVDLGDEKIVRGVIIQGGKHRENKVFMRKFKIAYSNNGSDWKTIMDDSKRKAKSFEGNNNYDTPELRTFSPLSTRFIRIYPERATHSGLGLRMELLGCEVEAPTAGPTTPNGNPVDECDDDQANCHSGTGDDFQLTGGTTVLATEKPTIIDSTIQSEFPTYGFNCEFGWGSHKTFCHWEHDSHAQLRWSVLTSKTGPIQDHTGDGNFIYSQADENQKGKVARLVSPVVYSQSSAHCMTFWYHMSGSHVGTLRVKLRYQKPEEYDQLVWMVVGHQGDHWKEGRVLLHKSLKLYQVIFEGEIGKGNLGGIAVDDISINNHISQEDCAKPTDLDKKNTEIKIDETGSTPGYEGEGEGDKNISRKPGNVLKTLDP
Briefly: competition phage ELISA.

For the next test, the target named is human NRP1 (human, UniProt O14786). The test is described as follows: competition phage ELISA. In general terms: An ELISA detects its analyte on a solid surface through an enzyme-linked reagent.

B1: YW107.4.58 (antibody, V domains shown)
VH: EVQLVESGGGLVQPGGSLRLSCAASGFTFSSYAMSWVRQAPGKGLEWVSQISPAGGYTNYADSVKGRFTISADTSKNTAYLQMNSLRAEDTAVYYCARELPYYRMSKVMDVWGQGTLVTVSS
VL: DIQMTQSPSSLSASVGDRVTITCRASQYISSYLAWYQQKPGKAPKLLIYGASSRASGVPSRFSGSGSGTDFTLTISSLQPEDFATYYCQQYKSSPRTFGQGTKVEIKR
As usually defined, the IC50 is the midpoint of a concentration-inhibition curve. A low value points to inhibition by little substance. B1: the IC50 with murine NRP1 was 3.5 nM; in the test with human NRP1 it was 0.73 nM.

B2: YW107.4.41 (antibody, V domains shown)
VH: EVQLVESGGGLVQPGGSLRLSCAASGFTFSSYAMSWVRQAPGKGLEWVSQISPAGGYTNYADSVKGRFTISADTSKNTAYLQMNSLRAEDTAVYYCARELPYYRMSKVMDVWGQGTLVTVSS
VL: DIQMTQSPSSLSASVGDRVTITCRASQWTHSYLAWYQQKPGKAPKLLIYGASRLESGVPSRFSGSGSGTDFTLTISSLQPEDFATYYCQQYFISPHTFGQGTKVEIKR
B2: the IC50 was found to be 5.5 nM with murine NRP1 and 0.43 nM with human NRP1.

B3: YW107.4.42 (antibody, V domains shown)
VH: EVQLVESGGGLVQPGGSLRLSCAASGFTFSSYAMSWVRQAPGKGLEWVSQISPAGGYTNYADSVKGRFTISADTSKNTAYLQMNSLRAEDTAVYYCARELPYYRMSKVMDVWGQGTLVTVSS
VL: DIQMTQSPSSLSASVGDRVTITCRASQWIHSYLAWYQQKPGKAPKLLIYGASSSASGVPSRFSGSGSGTDFTLTISSLQPEDFATYYCQQYYSSPLTFGQGTKVEIKR
With B3, the results for the IC50 in the test with murine NRP1 and in the test with human NRP1 were 1.2 nM and 0.81 nM, respectively.

B4: YW107.4.78 (antibody, V domains shown)
VH: EVQLVESGGGLVQPGGSLRLSCAASGFTFSSYAMSWVRQAPGKGLEWVSQISPAGGYTNYADSVKGRFTISADTSKNTAYLQMNSLRAEDTAVYYCARELPYYRMSKVMDVWGQGTLVTVSS
VL: DIQMTQSPSSLSASVGDRVTITCRASQYISSYLAWYQQKPGKAPKLLIYGASSRESGVPSRFSGSGSGTDFTLTISSLQPEDFATYYCQQYLSSPITFGQGTKVEIKR
For the molecule B4, the IC50 turned out to be 1.7 nM with murine NRP1 and 0.3 nM with human NRP1.

B5: YW107.4.59 (antibody, V domains shown)
VH: EVQLVESGGGLVQPGGSLRLSCAASGFTFSSYAMSWVRQAPGKGLEWVSQISPAGGYTNYADSVKGRFTISADTSKNTAYLQMNSLRAEDTAVYYCARELPYYRMSKVMDVWGQGTLVTVSS
VL: DIQMTQSPSSLSASVGDRVTITCRASQRIHSYLAWYQQKPGKAPKLLIYGASSRASGVPSRFSGSGSGTDFTLTISSLQPEDFATYYCQQYYISPLTFGQGTKVEIKR
On to B5, for which the IC50 in the test with murine NRP1 was 26 nM; with human NRP1 it was 1.8 nM.

B6: YW107.4.76b (antibody, V domains shown)
VH: EVQLVESGGGLVQPGGSLRLSCAASGFTFSSYAMSWVRQAPGKGLEWVSQISPAGGYTNYADSVKGRFTISADTSKNTAYLQMNSLRAEDTAVYYCARELPYYRMSKVMDVWGQGTLVTVSS
VL: DIQMTQSPSSLSASVGDRVTITCRASQWVHSYLAWYQQKPGKAPKLLIYGASSRASGVPSRFSGSGSGTDFTLTISSLQPEDFATYYCQQYYGTPITFGQGTKVEIKR
In the case of B6, the IC50 in the test with murine NRP1 stood at 3.9 nM; with human NRP1, 0.34 nM.

B7: YW107.4.55 (antibody, V domains shown)
VH: EVQLVESGGGLVQPGGSLRLSCAASGFTFSSYAMSWVRQAPGKGLEWVSQISPAGGYTNYADSVKGRFTISADTSKNTAYLQMNSLRAEDTAVYYCARELPYYRMSKVMDVWGQGTLVTVSS
VL: DIQMTQSPSSLSASVGDRVTITCRASQLTHSYLAWYQQKPGKAPKLLIYGASSRASGVPSRFSGSGSGTDFTLTISSLQPEDFATYYCQQYYSSPLTFGQGTKVEIKR
B7: the IC50 with murine NRP1 worked out at 2 nM; with human NRP1 it was 0.93 nM.

B8: YW107.4.33b (antibody, V domains shown)
VH: EVQLVESGGGLVQPGGSLRLSCAASGFTFSSYAMSWVRQAPGKGLEWVSQISPAGGYTNYADSVKGRFTISADTSKNTAYLQMNSLRAEDTAVYYCARELPYYRMSKVMDVWGQGTLVTVSS
VL: DIQMTQSPSSLSASVGDRVTITCRASQYIHSYLAWYQQKPGKAPKLLIYGASRRASGVPSRFSGSGSGTDFTLTISSLQPEDFATYYCQQYYGTPHTFGQGTKVEIKR
Take B8: the IC50 with murine NRP1 came out at 7.8 nM; with human NRP1 it was 0.58 nM.

B9: YW107.4.66 (antibody, V domains shown)
VH: EVQLVESGGGLVQPGGSLRLSCAASGFTFSSYAMSWVRQAPGKGLEWVSQISPAGGYTNYADSVKGRFTISADTSKNTAYLQMNSLRAEDTAVYYCARELPYYRMSKVMDVWGQGTLVTVSS
VL: DIQMTQSPSSLSASVGDRVTITCRASQYISSYLAWYQQKPGKAPKLLIYGASSRASGVPSRFSGSGSGTDFTLTISSLQPEDFATYYCQQYIVSPLTFGQGTKVEIKR
Take B9: the IC50 worked out at 2.6 nM in the test with murine NRP1 and 0.45 nM in the test with human NRP1.

B10: YW107.4.20 (antibody, V domains shown)
VH: EVQLVESGGGLVQPGGSLRLSCAASGFTFSSYAMSWVRQAPGKGLEWVSQISPAGGYTNYADSVKGRFTISADTSKNTAYLQMNSLRAEDTAVYYCARELPYYRMSKVMDVWGQGTLVTVSS
VL: DIQMTQSPSSLSASVGDRVTITCRASQRTHSYLAWYQQKPGKAPKLLIYGASSRASGVPSRFSGSGSGTDFTLTISSLQPEDFATYYCQQYYGSPHTFGQGTKVEIKR
With B10, the IC50 with murine NRP1 came to 33 nM; with human NRP1 it was 0.45 nM.

B11: YW107.4.33a (antibody, V domains shown)
VH: EVQLVESGGGLVQPGGSLRLSCAASGFTFSSYAMSWVRQAPGKGLEWVSQISPAGGYTNYADSVKGRFTISADTSKNTAYLQMNSLRAEDTAVYYCARELPYYRMSKVMDVWGQGTLVTVSS
VL: DIQMTQSPSSLSASVGDRVTITCRASQYISSYLAWYQQKPGKAPKLLIYGASRRASGVPSRFSGSGSGTDFTLTISSLQPEDFATYYCQQYIGSPITFGQGTKVEIKR
B11 registered an IC50 with human NRP1 of 0.31 nM.

B12: YW107.4.54 (antibody, V domains shown)
VH: EVQLVESGGGLVQPGGSLRLSCAASGFTFSSYAMSWVRQAPGKGLEWVSQISPAGGYTNYADSVKGRFTISADTSKNTAYLQMNSLRAEDTAVYYCARELPYYRMSKVMDVWGQGTLVTVSS
VL: DIQMTQSPSSLSASVGDRVTITCRASQPLHSYLAWYQQKPGKAPKLLIYGASSRASGVPSRFSGSGSGTDFTLTISSLQPEDFATYYCQQYYRSPLTFGQGTKVEIKR
B12: the IC50 with murine NRP1 was 2.7 nM; with human NRP1, 0.84 nM.

B13: YW107.4.53 (antibody, V domains shown)
VH: EVQLVESGGGLVQPGGSLRLSCAASGFTFSSYAMSWVRQAPGKGLEWVSQISPAGGYTNYADSVKGRFTISADTSKNTAYLQMNSLRAEDTAVYYCARELPYYRMSKVMDVWGQGTLVTVSS
VL: DIQMTQSPSSLSASVGDRVTITCRASQYISSYLAWYQQKPGKAPKLLIYGASRRESGVPSRFSGSGSGTDFTLTISSLQPEDFATYYCQQYLNSPLTFGQGTKVEIKR
As for B13, the IC50 with murine NRP1 worked out at 1.7 nM; with human NRP1, 0.3 nM.

B14: YW107.4.85 (antibody, V domains shown)
VH: EVQLVESGGGLVQPGGSLRLSCAASGFTFSSYAMSWVRQAPGKGLEWVSQISPAGGYTNYADSVKGRFTISADTSKNTAYLQMNSLRAEDTAVYYCARELPYYRMSKVMDVWGQGTLVTVSS
VL: DIQMTQSPSSLSASVGDRVTITCRASQYISSYLAWYQQKPGKAPKLLIYGASSGESGVPSRFSGSGSGTDFTLTISSLQPEDFATYYCQQYIISPITFGQGTKVEIKR
In the case of B14, the IC50 in the test with murine NRP1 worked out at 4 nM; with human NRP1 it was 0.44 nM.

B15: YW107.4.12 (antibody, V domains shown)
VH: EVQLVESGGGLVQPGGSLRLSCAASGFTFSSYAMSWVRQAPGKGLEWVSQISPAGGYTNYADSVKGRFTISADTSKNTAYLQMNSLRAEDTAVYYCARELPYYRMSKVMDVWGQGTLVTVSS
VL: DIQMTQSPSSLSASVGDRVTITCRASQYTHSYLAWYQQKPGKAPKLLIYGASSRASGVPSRFSGSGSGTDFTLTISSLQPEDFATYYCQQYYSSPITFGQGTKVEIKR
Turning to B15, the IC50 worked out at 3.4 nM with murine NRP1 and 0.1 nM in the test with human NRP1.

B16: YW107.4.51 (antibody, V domains shown)
VH: EVQLVESGGGLVQPGGSLRLSCAASGFTFSSYAMSWVRQAPGKGLEWVSQISPAGGYTNYADSVKGRFTISADTSKNTAYLQMNSLRAEDTAVYYCARELPYYRMSKVMDVWGQGTLVTVSS
VL: DIQMTQSPSSLSASVGDRVTITCRASQRISSYLAWYQQKPGKAPKLLIYGASRRESGVPSRFSGSGSGTDFTLTISSLQPEDFATYYCQQYKLSPLTFGQGTKVEIKR
With B16, the IC50 with murine NRP1 came out at 12 nM; in the test with human NRP1, 2 nM.

B17: YW107.4.17 (antibody, V domains shown)
VH: EVQLVESGGGLVQPGGSLRLSCAASGFTFSSYAMSWVRQAPGKGLEWVSQISPAGGYTNYADSVKGRFTISADTSKNTAYLQMNSLRAEDTAVYYCARELPYYRMSKVMDVWGQGTLVTVSS
VL: DIQMTQSPSSLSASVGDRVTITCRASQYTHSYLAWYQQKPGKAPKLLIYGASSRASGVPSRFSGSGSGTDFTLTISSLQPEDFATYYCQQYYSSPVTFGQGTKVEIKR
As for B17, the values for the IC50 with murine NRP1 and in the test with human NRP1 were 6 nM and 0.24 nM, respectively.

Source of the values: patent US8211429 (dated 2012).
